Blank lines part the entries; values can stand above or below the molecule they belong to.
What was measured:
CXCR4 [1] = target: T1, CXCR4 (Homo sapiens, UniProt P61073); experiment: [125I]-CXCL12 competition binding on membranes from HEK293T cells transiently expressing CXCR4; conditions: for Rel. potency, relative to monovalent 238D2 / Rel. potency, relative to monovalent 238D4: [125I]-CXCL12 displacement; for Rel. potency, relative to monovalent 238D2: potency relative to those of monovalent 238D2; for Rel. potency, relative to monovalent 238D4: potency relative to those of monovalent 238D4; for Displacem. (%) of [125I]-CXCL12 (maximal displacement), bivalent Nanobodies / pKi, [125I]-CXCL12, bivalent Nanobodies: mean ± S.E.M.
T1 sequence (P61073 whole entry): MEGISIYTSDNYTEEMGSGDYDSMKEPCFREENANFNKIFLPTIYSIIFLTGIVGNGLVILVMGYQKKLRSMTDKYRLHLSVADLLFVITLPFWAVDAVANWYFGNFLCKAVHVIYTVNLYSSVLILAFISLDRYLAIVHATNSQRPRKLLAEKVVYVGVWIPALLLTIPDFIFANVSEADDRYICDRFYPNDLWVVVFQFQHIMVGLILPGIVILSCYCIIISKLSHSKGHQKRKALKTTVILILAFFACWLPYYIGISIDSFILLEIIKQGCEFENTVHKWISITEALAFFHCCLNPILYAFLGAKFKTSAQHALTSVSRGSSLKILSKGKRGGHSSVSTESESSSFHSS
Method: (§1) HEK293T cells were maintained at 37° C. in a humidified 5% CO2, 95% air atmosphere in Dulbecco's modified Eagle's medium (DMEM) containing 2 mM L-glutamine, 50 IU/ml penicillin, 50 μg/ml streptomycin, and 10% (v/v) fetal calf serum. Jurkat cells were cultured in a humidified 5% CO2, 95% air atmosphere in a 1:1 mixture of Dulbecco's modified Eagle's medium (DMEM) and Ham's F12 medium containing 2 mM L-glutamine, 50 IU/ml penicillin, 50 μg/ml streptomycin, and 10% (v/v) fetal calf serum. […] [^125 I]-Labelling— Radiolabeling of Nanobodies with ^125I was performed using the Iodo-gen method (Pierce, Rockford, Ill.) according to the manufacturer's protocol. ^125I-labeled Nanobodies was separated from free iodine (>99%) using a Sephadex G-25 gel filtration column (Amersham Biosciences, Piscataway, N.J.). […] Competition Binding Assays— Membranes from HEK293T cells transiently expressing CXCR3 or CXCR4 were prepared 48 h after transfection as follows. Cells were washed and scraped from the cell culture dishes with ice-cold PBS containing 1 mm EDTA. The scraped cells were pelleted at 1500×g for 10 min at 4° C. The pellet was washed and then resuspended in ice-cold membrane buffer (15 mM Tris, pH 7.5, 1 mM EGTA, 0.3 mM EDTA, and 2 mM MgCl2). The cell suspension was homogenized by 10 strokes at 1200 rpm using a Teflon-glass homogenizer and rotor and further subjected to three freeze-thaw cycles using liquid nitrogen. Membranes were separated by centrifugation at 40,000 g for 25 min at 4° C. The membrane pellet was washed and resuspended in ice-cold Tris-sucrose buffer (20 mM Tris, pH 7.4, and 250 mM sucrose) and frozen in liquid nitrogen. The total protein was determined using a Bradford assay (Bio-Rad). […] Membranes were then harvested over polyethylenimine (0.5%)-treated Whatman GF/C filter plates and washed three times with ice cold binding buffer containing 500 mM NaCl. Plates were counted by liquid scintillation. Inositol Phosphate Accumulation Assay— 24 hours post transfection with pcDNA3.1-CXCR4 and pcDNA1-HA-mG {alpha} qi5 (see Verzijl et al, 2008 supra), 250.000 cells were seeded into 24-wells plates and labelled overnight using inositol-free minimal essential medium supplemented with 1 μCi myo-[2-^3H]-inositol. The next day, the cells were washed once to remove not incorporated myo-[2-^3H]-inositol. […] In agonist experiments, the cells were directly stimulated with test compounds and LiCl (10 mM) in assay buffer for 2 h at 37° C. The stimulation was stopped by aspirating the stimulation medium and adding ice-cold 10 mM formic acid. The accumulated inositol phosphates were isolated by anion exchange chromatography and counted by liquid scintillation. CRE Reporter Gene Assay— HEK239T cells were transfected with pCRE/β-galactosidase (Chen W, Shields T S, Stork P J S, Cone R D (1995) Anal Biochem 226:349-354) and plasmids (pcDEF3 or pcDNA3.1) encoding the indicated receptors. 40,000 transfected cells per well were seeded into 96 well plates and grown in DMEM supplemented with 10% fetal calf serum. The medium was replaced 32 h after transfection by serum-free DMEM supplemented with 0.5% bovine serum albumin and ligands as indicated. […] The β-galactosidase activity was determined by the measurement of absorption at 420 nm with a PowerwaveX340 plate reader (Bio-Tek Instruments Inc., Winooski, Vt.) after incubation with the assay buffer when the OD420 value for forskolin (3 μM) controls reached 0.4-0.6. Chemotaxis Assay— The chemotactic responsiveness of Jurkat 3D cells was assessed using ChemoTx™ plates (Receptor Technologies Ltd., Oxon, UK) in which a upper cell-containing compartment is separated from a lower chemoattractant-containing compartment by a polyvinylpyrollidone-free polycarbonate filter with 5-μm pores. Cells were harvested, washed and resuspended in RPMI containing 0.5% bovine serum albumin and then loaded to 150,000 cells per well in a volume of 25 μl into the upper compartment of the chemotaxis chamber.

CXCR4 [2] = target: T1, CXCR4; experiment: [125I]-238D4 competition binding on membranes from HEK293T cells transiently expressing CXCR4
Method: as §1

CXCR4 [3] = target: T1, CXCR4; experiment: [125I]-238D2 competition binding on membranes from HEK293T cells transiently expressing CXCR4
Method: as §1

[4] = system: Jurkat cells endogenously expressing CXCR4; experiment: Chemotaxis assay (ChemoTx plates) with Jurkat cells towards CXCL12; type: cell-based; conditions: for inhibition of migration of Jurkat cells towards CXCL12: 300 pM CXCL12; for Imax (%), Chemotaxis, bivalent Nanobodies: Jurkat/0.3 nM CXCL12, mean ± S.E.M.; for pKi, antagonism of the chemoattractant effects of CXCL12: n=3
Method: HEK293T cells were maintained at 37° C. in a humidified 5% CO2, 95% air atmosphere in Dulbecco's modified Eagle's medium (DMEM) containing 2 mM L-glutamine, 50 IU/ml penicillin, 50 μg/ml streptomycin, and 10% (v/v) fetal calf serum. Jurkat cells were cultured in a humidified 5% CO2, 95% air atmosphere in a 1:1 mixture of Dulbecco's modified Eagle's medium (DMEM) and Ham's F12 medium containing 2 mM L-glutamine, 50 IU/ml penicillin, 50 μg/ml streptomycin, and 10% (v/v) fetal calf serum. […] [^125 I]-Labelling— Radiolabeling of Nanobodies with ^125I was performed using the Iodo-gen method (Pierce, Rockford, Ill.) according to the manufacturer's protocol. ^125I-labeled Nanobodies was separated from free iodine (>99%) using a Sephadex G-25 gel filtration column (Amersham Biosciences, Piscataway, N.J.). […] Competition Binding Assays— Membranes from HEK293T cells transiently expressing CXCR3 or CXCR4 were prepared 48 h after transfection as follows. Cells were washed and scraped from the cell culture dishes with ice-cold PBS containing 1 mm EDTA. The scraped cells were pelleted at 1500×g for 10 min at 4° C. The pellet was washed and then resuspended in ice-cold membrane buffer (15 mM Tris, pH 7.5, 1 mM EGTA, 0.3 mM EDTA, and 2 mM MgCl2). The cell suspension was homogenized by 10 strokes at 1200 rpm using a Teflon-glass homogenizer and rotor and further subjected to three freeze-thaw cycles using liquid nitrogen. Membranes were separated by centrifugation at 40,000 g for 25 min at 4° C. The membrane pellet was washed and resuspended in ice-cold Tris-sucrose buffer (20 mM Tris, pH 7.4, and 250 mM sucrose) and frozen in liquid nitrogen. The total protein was determined using a Bradford assay (Bio-Rad). Periplasmas (1:10) or ligands were pre-incubated with membranes in binding buffer (50 mM HEPES (pH 7.4), 1 mM CaCl2, 5 mM MgCl2, 100 mM NaCl, 0.5% bovine serum albumin) supplemented with 0.5% BSA for 1 h at 22° C. before the addition of [^125I]-CXCL12 (40 pM) or [^125I]-238D2 (3 nM) or [^125I]-238D4 (3 nM) for additional 2 h at 22° C. […] Membranes were then harvested over polyethylenimine (0.5%)-treated Whatman GF/C filter plates and washed three times with ice cold binding buffer containing 500 mM NaCl. Plates were counted by liquid scintillation. Inositol Phosphate Accumulation Assay— 24 hours post transfection with pcDNA3.1-CXCR4 and pcDNA1-HA-mG {alpha} qi5 (see Verzijl et al, 2008 supra), 250.000 cells were seeded into 24-wells plates and labelled overnight using inositol-free minimal essential medium supplemented with 1 μCi myo-[2-^3H]-inositol. The next day, the cells were washed once to remove not incorporated myo-[2-^3H]-inositol. […] In agonist experiments, the cells were directly stimulated with test compounds and LiCl (10 mM) in assay buffer for 2 h at 37° C. The stimulation was stopped by aspirating the stimulation medium and adding ice-cold 10 mM formic acid. The accumulated inositol phosphates were isolated by anion exchange chromatography and counted by liquid scintillation. CRE Reporter Gene Assay— HEK239T cells were transfected with pCRE/β-galactosidase (Chen W, Shields T S, Stork P J S, Cone R D (1995) Anal Biochem 226:349-354) and plasmids (pcDEF3 or pcDNA3.1) encoding the indicated receptors. 40,000 transfected cells per well were seeded into 96 well plates and grown in DMEM supplemented with 10% fetal calf serum. The medium was replaced 32 h after transfection by serum-free DMEM supplemented with 0.5% bovine serum albumin and ligands as indicated. Following 16 h of ligand incubation, the medium was removed, the cells were lysed in 100 μl of assay buffer (100 mM sodium phosphate buffer at pH 8.0, 4 mM 2-nitrophenol-β-D-pyranoside, 0.5% Triton X-100, 2 mM MgSO4, 0.1 mM MnCl2, and 40 mM β-mercaptoethanol) and incubated at room temperature. […]

[5] = at highest test concentration of 0.5 μM (footnote a: no significant displacement; b: maximum not reached)
[6] = membranes from HEK293T cells transiently expressing CXCR4

Displacem. (%) of [125I]-CXCL12 at 0.5 μM (CXCR4 [1]; at highest test concentration of 0.5 μM (footnote a: no significant displacement)): 0^a %
affinity to CXCR4 (CXCR4 [1]; in words): low affinity
displacement of specifically bound [125I]-CXCL12 (CXCR4 [1]; purified ligands, highest Nanobody test concentration 0.5 μM): unable to displace
Binding (binding efficiency, competition binding with [125I]-CXCL12) (CXCR4 [1]; screening of Nanobody clone pools, membranes from HEK293T cells transiently expressing CXCR4): + (+ = 30-69%)
displacement of [125I]-238D4 from CXCR4 (CXCR4 [2]; [125I]-238D4 3 nM): displaces
Displacem. (%) of [125I]-238D4 at 0.5 μM (CXCR4 [2]; [5]): 38 ± 4^b %
displacement of [125I]-238D2 from CXCR4 (CXCR4 [3]; [125I]-238D2 3 nM): displaces
Displacem. (%) of [125I]-238D2 at 0.5 μM (CXCR4 [3]; [5]): 45 ± 5^b %
binding mode at CXCR4 (CXCR4 [3]; displacement of labelled Nanobodies only at ≧100 nM): low affinity allosteric CXCR4 ligand
B1: 238C5: Nanobody (VHH) raised against human CXCR4, SEQ ID NO: 243 (protein)
VHH: EVQLMESGGGLVQAGGSLRLACAASGFTFEDYAIGWFRKAPGKEREGVSCISGSDGSTTYADSVKGRFTISTDNAKNTVYLEMNSLKPEDTAVYYCAQQYGVGGRVVCPGPYEYDVWGQGTQVTVSS
modifications: Nanobody, Nanobody constructs or fragments thereof

Rel. potency, relative to monovalent 238D2 (CXCR4 [1]): 28
Rel. potency, relative to monovalent 238D4 (CXCR4 [1]): 17
Displacem. (%) of [125I]-CXCL12 (maximal displacement), bivalent Nanobodies (CXCR4 [1]; [6]): 92 ± 6%
pKi, [125I]-CXCL12, bivalent Nanobodies (CXCR4 [1]; [6]): 9.45 ± 0.09
B2: 238D2-15GS-238D4: heterobivalent Nanobody, 238D2 linked to 238D4 by a 15 amino acid GGGGS linker (protein)
chain: EVQLVESGGGLVQTGGSLRLSCAASGFTFSSYAMSWVRQAPGKGLEWVSGIKSSGDSTRYAGSVKGRFTISRDNAKNMLYLQMYSLKPEDTAVYYCAKSRVSRTGLYTYDNRGQGTQVTVSSGGGGSGGGGSGGGGSEVQLMESGGGLVQAGGSLRLSCAASGRTFNNYAMGWFRRAPGKEREFVAAITRSGVRSGVSAIYGDSVKDRFTISRDNAKNTLYLQMNSLKPEDTAVYTCAASAIGSGALRRFEYDYSGQGTQVTVSS
modifications: Nanobody, Nanobody constructs or fragments thereof
notes: heterobivalent Nanobody, 238D2 linked to 238D4 by a 15 amino acid GGGGS linker
inhibition of migration of Jurkat cells towards CXCL12 [4]: fully antagonized
Imax (%), Chemotaxis, bivalent Nanobodies [4]: 107 ± 5%
pKi, antagonism of the chemoattractant effects of CXCL12 [4]: 9.86±0.04

Rel. potency, relative to monovalent 238D2 (CXCR4 [1]): 27
Rel. potency, relative to monovalent 238D4 (CXCR4 [1]): 17
increase in affinity to CXCR4 over monovalent 238D2 (CXCR4 [1]; heterobivalent construct): 27 fold
increase in affinity to CXCR4 over monovalent 238D4 (CXCR4 [1]; heterobivalent construct): 17 fold
Displacem. (%) of [125I]-CXCL12 (maximal displacement), bivalent Nanobodies (CXCR4 [1]; [6]): 103 ± 4%
pKi, [125I]-CXCL12, bivalent Nanobodies (CXCR4 [1]; [6]): 9.44 ± 0.07
B3: 238D2-20GS-238D4: heterobivalent Nanobody, 238D2 linked to 238D4 by a 20 amino acid GGGGS linker (protein)
chain: EVQLVESGGGLVQTGGSLRLSCAASGFTFSSYAMSWVRQAPGKGLEWVSGIKSSGDSTRYAGSVKGRFTISRDNAKNMLYLQMYSLKPEDTAVYYCAKSRVSRTGLYTYDNRGQGTQVTVSSGGGGSGGGGSGGGGSGGGGSEVQLMESGGGLVQAGGSLRLSCAASGRTFNNYAMGWFRRAPGKEREFVAAITRSGVRSGVSAIYGDSVKDRFTISRDNAKNTLYLQMNSLKPEDTAVYTCAASAIGSGALRRFEYDYSGQGTQVTVSS
modifications: Nanobody, Nanobody constructs or fragments thereof
notes: heterobivalent Nanobody, 238D2 linked to 238D4 by a 20 amino acid GGGGS linker
inhibition of migration of Jurkat cells towards CXCL12 [4]: fully antagonized
Imax (%), Chemotaxis, bivalent Nanobodies [4]: 100 ± 4%
pKi, antagonism of the chemoattractant effects of CXCL12 [4]: 10.19±0.27

From patent US9212226B2, “Amino acid sequences directed against CXCR4 and other GPCRs and compounds comprising the same” (Ablynx N.V., priority 2008, dated 2015)
